Laboratory results published in patent US9289444B2, “Composition for promoting hematogenesis containing quercetin 3-O-β-(2″-galloyl)-rhamnopyranoside as active ingredient” (Chungbuk National University Industry Academic Cooperation …, priority 2011, dated 2016).

Tested on: BMNCs
Assay: Histochemistry (Wright-Giemsa) and immunocytochemistry for erythroid cells (TER-119)
Type: cell-based, mouse
Details: 7 days culture, Wright-Giemsa staining
Experimental: In order to investigate whether QGR can stimulate the differentiation of hematopoietic stem cells into erythroid cells, the morphology of cells was observed and immunocytochemistry against TER-119, the marker of erythroid progenitors, was carried out. BMNCs were harvested 7 days after incubation with either rEpo (3 units/ml) or QGR (100 or 200 μM/ml) washed with PBS, re-suspended at a concentration of 2×10^5 cells/ml in PBS and subjected (100 μl/slide) to cytospin for 5 min at 1,000 rpm (Cytospin3; Shandon, ThermoElectron, Waltham, Mass., USA). All slides were fixed using cold methanol. Wright-Giemsa stain was performed for morphologic analysis. Immunocytochemistry against TER-119 was carried out for cellular lineage with 100-fold dilution according to the manufacturer's instruction using avidin biotinylated enzyme complex kit (VECTASTAIN, Vector Laboratories and Burlingame, Calif., USA).

B1: positive control group: mouse recombinant Epo (rEpo, 3 units/ml), positive control in the erythroid differentiation tests (protein, UniProt P07321 27-192, looked up)
Erythropoietin: APPRLICDSRVLERYILEAKEAENVTMGCAEGPRLSENITVPDTKVNFYAWKRMEVEEQAIEVWQGLSLLSEAILQAQALLANSSQPPETLQLHIDKAISGLRSLTSLLRVLGAQKELMSPPDTTPPAPLRTLTVDTFCKLFRVYANFLRGKLKLYTGEVCRRGDR
  number of enucleated erythroid cells: increased
